Experimental data as given in the supplement of paper PMC10567573.

B1: TIA1 (parent)
chain: TYECRCIGEEKEMWNFGEKYARF
B2: SOAT1 (parent)
chain: GVLILFLTFFAFLHCWLNAFAEML

Variants of: B1
Assay: protein stability index of a GFP-peptide fusion (GPS, HEK-293T) (PSI 1-6); higher = more stable
Details: c terminus: native
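Note: lentivirally expressed fusions sorted by FACS into six bins by GFP to DsRed ratio, PSI derived from sequencing read proportions per bin multiplied by bin number.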

Q: Which protein stability index does the source give for TYECRCIGEEKEMWNFGEAYARF here?
A: 1.65

Q: With TYECRCIGEEKEMWNFGECYARF as the variant, how does the protein stability index read?
A: 1.85

Q: With TYECRCIGEEKEMWNFGERYARF as the variant, how does the protein stability index read?
A: 2.44

Q: Which protein stability index does the source give for TYECRCIGEEKEMWNFGEVYARF here?
A: 1.76

Q: Which protein stability index does the source give for TYECRCIGEEKEMWNFGEEYARF here?
A: 3.18

Q: With TYECRCIGEEKEMWNFGEPYARF as the variant, how does the protein stability index read?
A: 3.04

Q: Which protein stability index does the source give for TYECRCIGEEKEMWNFGETYARF here?
A: 2.06

Q: With TYECRCIGEEKEMWNFGEIYARF as the variant, how does the protein stability index read?
A: 1.62

Q: With TYECRCIGEEKEMWNFGEKYSRF as the variant, how does the protein stability index read?
A: 1.97

Q: For TYECRCIGEEKEMWNFGEKYVRF, which protein stability index is on record?
A: 2.37

Q: With TYECRCIGEEKEMWNFGEKYYRF as the variant, how does the protein stability index read?
A: 1.89

Q: Which protein stability index does the source give for TYECRCIGEEKEMWNFGEKYRRF here?
A: 2.71

Q: With TYECRCIGEEKEMWNFGEKYCRF as the variant, how does the protein stability index read?
A: 1.89

Q: Which protein stability index does the source give for TYECRCIGEEKEMWNFGEKYGRF here?
A: 2.11

Q: With TYECRCIGEEKEMWNFGEKYQRF as the variant, how does the protein stability index read?
A: 2.04

Q: Which protein stability index does the source give for TYECRCIGEEKEMWNFGEKYDRF here?
A: 3.1

Q: For TYECRCIGEEKEMWNFGEKYKRF, which protein stability index is on record?
A: 2.8

Q: With TYECRCIGEEKEMWNFGEKYMRF as the variant, how does the protein stability index read?
A: 1.99

Q: With TYECRCIGEEKEMWNFGEKYTRF as the variant, how does the protein stability index read?
A: 1.44

Q: With TYECRCIGEEKEMWNFGEKYWRF as the variant, how does the protein stability index read?
A: 2.42

Q: Which protein stability index does the source give for TYECRCIGEEKEMWNFGEKYFRF here?
A: 2.02

Q: With TYECRCIGEEKEMWNFGEKYHRF as the variant, how does the protein stability index read?
A: 3.06

Q: Which protein stability index does the source give for TYECRCIGEEKEMWNFGEKYPRF here?
A: 3.79

Q: For TYECRCIGEEKEMWNFGEKYERF, which protein stability index is on record?
A: 3.16

Q: For TYECRCIGEEKEMWNFGEKYIRF, which protein stability index is on record?
A: 2.72

Q: Which protein stability index does the source give for TYECRCIGEEKEMWNFGEKYLRF here?
A: 2.19

Q: Which protein stability index does the source give for TYECRCIGEEKEMWNFVEKYARF here?
A: 2.03

Q: Which protein stability index does the source give for TYECRCIGEEKEMWNFREKYARF here?
A: 2.1

Q: Which protein stability index does the source give for TYECRCIGEEKEMWNFAEKYARF here?
A: 2.27

Q: For TYECRCIGEEKEMWNFYEKYARF, which protein stability index is on record?
A: 1.7

Q: For TYECRCIGEEKEMWNFHEKYARF, which protein stability index is on record?
A: 2

Q: For TYECRCIGEEKEMWNFQEKYARF, which protein stability index is on record?
A: 2.1

Q: Which protein stability index does the source give for TYECRCIGEEKEMWNFDEKYARF here?
A: 3.11

Q: For TYECRCIGEEKEMWNFIEKYARF, which protein stability index is on record?
A: 1.16

Q: With TYECRCIGEEKEMWNFCEKYARF as the variant, how does the protein stability index read?
A: 1.75

Q: Which protein stability index does the source give for TYECRCIGEEKEMWNFWEKYARF here?
A: 2.2

Q: For TYECRCIGEEKEMWNFSEKYARF, which protein stability index is on record?
A: 1.72

Q: Which protein stability index does the source give for TYECRCIGEEKEMWNFMEKYARF here?
A: 1.86

Q: With TYECRCIGEEKEMWNFPEKYARF as the variant, how does the protein stability index read?
A: 2.15

Q: For TYECRCIGEEKEMWNFEEKYARF, which protein stability index is on record?
A: 2.16

Q: With TYECRCIGEEKEMWNFTEKYARF as the variant, how does the protein stability index read?
A: 2.89

Q: With TYECRCIGEEKEMWNFNEKYARF as the variant, how does the protein stability index read?
A: 3.29

Q: For TYECRCIGEEKEMWNFLEKYARF, which protein stability index is on record?
A: 2.35

Q: For TYECRCIGEEKEMWNFFEKYARF, which protein stability index is on record?
A: 1.81

Q: With TYECRCIGEEKEMWNFKEKYARF as the variant, how does the protein stability index read?
A: 1.98

Variants of: B2
Assay: as above
Details: c terminus: a fixed tail appended

Q: For NVLILFLTFFAFLHCWLNAFAEML, which protein stability index is on record?
A: 3.26

Q: With TVLILFLTFFAFLHCWLNAFAEML as the variant, how does the protein stability index read?
A: 3.35

Q: Which protein stability index does the source give for AVLILFLTFFAFLHCWLNAFAEML here?
A: 3.39

Q: For RVLILFLTFFAFLHCWLNAFAEML, which protein stability index is on record?
A: 4.47

Q: With IVLILFLTFFAFLHCWLNAFAEML as the variant, how does the protein stability index read?
A: 3.7

Q: With CVLILFLTFFAFLHCWLNAFAEML as the variant, how does the protein stability index read?
A: 2.93

Q: With MVLILFLTFFAFLHCWLNAFAEML as the variant, how does the protein stability index read?
A: 2.94

Q: Which protein stability index does the source give for YVLILFLTFFAFLHCWLNAFAEML here?
A: 2.49

Q: With HVLILFLTFFAFLHCWLNAFAEML as the variant, how does the protein stability index read?
A: 3.67

Q: Which protein stability index does the source give for KVLILFLTFFAFLHCWLNAFAEML here?
A: 2.23

Q: Which protein stability index does the source give for WVLILFLTFFAFLHCWLNAFAEML here?
A: 1.61

Q: With EVLILFLTFFAFLHCWLNAFAEML as the variant, how does the protein stability index read?
A: 3.49

Q: With SVLILFLTFFAFLHCWLNAFAEML as the variant, how does the protein stability index read?
A: 4.28

Q: Which protein stability index does the source give for QVLILFLTFFAFLHCWLNAFAEML here?
A: 2.35

Q: Which protein stability index does the source give for PVLILFLTFFAFLHCWLNAFAEML here?
A: 3.53

Q: Which protein stability index does the source give for VVLILFLTFFAFLHCWLNAFAEML here?
A: 3.18

Q: Which protein stability index does the source give for FVLILFLTFFAFLHCWLNAFAEML here?
A: 2.2

Q: Which protein stability index does the source give for GELILFLTFFAFLHCWLNAFAEML here?
A: 2.17

Q: Which protein stability index does the source give for GNLILFLTFFAFLHCWLNAFAEML here?
A: 1.42

Q: Which protein stability index does the source give for GMLILFLTFFAFLHCWLNAFAEML here?
A: 2.26

Q: With GYLILFLTFFAFLHCWLNAFAEML as the variant, how does the protein stability index read?
A: 2.31

Q: Which protein stability index does the source give for GILILFLTFFAFLHCWLNAFAEML here?
A: 2.62

Q: Which protein stability index does the source give for GHLILFLTFFAFLHCWLNAFAEML here?
A: 2.35

Q: Which protein stability index does the source give for GKLILFLTFFAFLHCWLNAFAEML here?
A: 2.31

Q: Which protein stability index does the source give for GDLILFLTFFAFLHCWLNAFAEML here?
A: 2.14

Q: With GPLILFLTFFAFLHCWLNAFAEML as the variant, how does the protein stability index read?
A: 1.74

Q: Which protein stability index does the source give for GSLILFLTFFAFLHCWLNAFAEML here?
A: 1.98

Q: For GCLILFLTFFAFLHCWLNAFAEML, which protein stability index is on record?
A: 2.05

Q: Which protein stability index does the source give for GWLILFLTFFAFLHCWLNAFAEML here?
A: 2.95

Q: With GRLILFLTFFAFLHCWLNAFAEML as the variant, how does the protein stability index read?
A: 3.5

Q: For GFLILFLTFFAFLHCWLNAFAEML, which protein stability index is on record?
A: 2.32

Q: With GTLILFLTFFAFLHCWLNAFAEML as the variant, how does the protein stability index read?
A: 2.72

Q: For GLLILFLTFFAFLHCWLNAFAEML, which protein stability index is on record?
A: 1.03

Q: With GALILFLTFFAFLHCWLNAFAEML as the variant, how does the protein stability index read?
A: 2.01

Q: For GQLILFLTFFAFLHCWLNAFAEML, which protein stability index is on record?
A: 2.56

Q: For GVSILFLTFFAFLHCWLNAFAEML, which protein stability index is on record?
A: 3.06

Q: With GVMILFLTFFAFLHCWLNAFAEML as the variant, how does the protein stability index read?
A: 3.1

Q: Which protein stability index does the source give for GVGILFLTFFAFLHCWLNAFAEML here?
A: 2.85

Q: With GVFILFLTFFAFLHCWLNAFAEML as the variant, how does the protein stability index read?
A: 2.69

Q: With GVPILFLTFFAFLHCWLNAFAEML as the variant, how does the protein stability index read?
A: 3.1

Q: With GVHILFLTFFAFLHCWLNAFAEML as the variant, how does the protein stability index read?
A: 2.34

Q: With GVYILFLTFFAFLHCWLNAFAEML as the variant, how does the protein stability index read?
A: 2.94

Q: For GVKILFLTFFAFLHCWLNAFAEML, which protein stability index is on record?
A: 1.94

Q: With GVRILFLTFFAFLHCWLNAFAEML as the variant, how does the protein stability index read?
A: 2.98

Q: For GVCILFLTFFAFLHCWLNAFAEML, which protein stability index is on record?
A: 3.65

Q: For GVDILFLTFFAFLHCWLNAFAEML, which protein stability index is on record?
A: 2.13

Q: With GVEILFLTFFAFLHCWLNAFAEML as the variant, how does the protein stability index read?
A: 2.74

Q: For GVTILFLTFFAFLHCWLNAFAEML, which protein stability index is on record?
A: 3.86

Q: For GVAILFLTFFAFLHCWLNAFAEML, which protein stability index is on record?
A: 2.52

Q: For GVWILFLTFFAFLHCWLNAFAEML, which protein stability index is on record?
A: 3.13

Q: Which protein stability index does the source give for GVVILFLTFFAFLHCWLNAFAEML here?
A: 3.82
